This note sets out measurements from article PMC7534926 (The Journal of Cell Biology, 2020).

One assay deals with Pdlim5 (UniProt Q62920). The experiment in a line: proximity ligation assay. To be noted: reference: no treatment; sites S1242.
The target in the next assay is Magi1 (UniProt Q4L1J4). The experiment in a line: proximity ligation assay. The following applies: reference: no treatment; sites S1242.
The target of the next assay is Pdlim5 PDZ domain (UniProt Q96HC4). The experiment in a line: PDZ-domain microarray probed with biotinylated peptide.
A further assay addresses Erbin PDZ domain (UniProt Q96RT1). Described as above. The following applies: reference: unphosphorylated peptide; sites S1242,S1245.
The target of assay [1] is endogenous delta-catenin of rat hippocampal neurons (rat (endogenous in primary hippocampal neurons)) (UniProt O35116). The experiment in a line: proximity ligation.
endogenous delta-catenin of rat hippocampal neurons (rat (endogenous in primary hippocampal neurons)), sequence (O35116 whole entry, stated change not applied, the tested form may be a part): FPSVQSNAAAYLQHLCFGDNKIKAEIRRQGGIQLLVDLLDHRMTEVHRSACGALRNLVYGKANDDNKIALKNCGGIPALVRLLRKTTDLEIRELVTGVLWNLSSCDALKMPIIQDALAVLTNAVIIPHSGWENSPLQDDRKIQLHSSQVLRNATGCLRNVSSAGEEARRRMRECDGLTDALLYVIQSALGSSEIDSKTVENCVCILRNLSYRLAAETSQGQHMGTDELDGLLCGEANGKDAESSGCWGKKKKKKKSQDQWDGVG
Assay [2] deals with GST fusion of the PDZ domain of Erbin (array) (human, UniProt Q96RT1 1321-1410). The experiment in a line: peptide or protein array.
GST fusion of the PDZ domain of Erbin (array), sequence (Q96RT1 1321-1410): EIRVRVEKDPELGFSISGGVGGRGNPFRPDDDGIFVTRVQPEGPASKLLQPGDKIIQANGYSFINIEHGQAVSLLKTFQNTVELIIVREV

No end group written: not given here. *: point of attachment. Biotin = O=C1N[C@H]2[C@H](CS[C@H]2CCCCC(=O)*)N1

Magi1, sequence (Q4L1J4 whole entry, looked up, the tested form may be a part): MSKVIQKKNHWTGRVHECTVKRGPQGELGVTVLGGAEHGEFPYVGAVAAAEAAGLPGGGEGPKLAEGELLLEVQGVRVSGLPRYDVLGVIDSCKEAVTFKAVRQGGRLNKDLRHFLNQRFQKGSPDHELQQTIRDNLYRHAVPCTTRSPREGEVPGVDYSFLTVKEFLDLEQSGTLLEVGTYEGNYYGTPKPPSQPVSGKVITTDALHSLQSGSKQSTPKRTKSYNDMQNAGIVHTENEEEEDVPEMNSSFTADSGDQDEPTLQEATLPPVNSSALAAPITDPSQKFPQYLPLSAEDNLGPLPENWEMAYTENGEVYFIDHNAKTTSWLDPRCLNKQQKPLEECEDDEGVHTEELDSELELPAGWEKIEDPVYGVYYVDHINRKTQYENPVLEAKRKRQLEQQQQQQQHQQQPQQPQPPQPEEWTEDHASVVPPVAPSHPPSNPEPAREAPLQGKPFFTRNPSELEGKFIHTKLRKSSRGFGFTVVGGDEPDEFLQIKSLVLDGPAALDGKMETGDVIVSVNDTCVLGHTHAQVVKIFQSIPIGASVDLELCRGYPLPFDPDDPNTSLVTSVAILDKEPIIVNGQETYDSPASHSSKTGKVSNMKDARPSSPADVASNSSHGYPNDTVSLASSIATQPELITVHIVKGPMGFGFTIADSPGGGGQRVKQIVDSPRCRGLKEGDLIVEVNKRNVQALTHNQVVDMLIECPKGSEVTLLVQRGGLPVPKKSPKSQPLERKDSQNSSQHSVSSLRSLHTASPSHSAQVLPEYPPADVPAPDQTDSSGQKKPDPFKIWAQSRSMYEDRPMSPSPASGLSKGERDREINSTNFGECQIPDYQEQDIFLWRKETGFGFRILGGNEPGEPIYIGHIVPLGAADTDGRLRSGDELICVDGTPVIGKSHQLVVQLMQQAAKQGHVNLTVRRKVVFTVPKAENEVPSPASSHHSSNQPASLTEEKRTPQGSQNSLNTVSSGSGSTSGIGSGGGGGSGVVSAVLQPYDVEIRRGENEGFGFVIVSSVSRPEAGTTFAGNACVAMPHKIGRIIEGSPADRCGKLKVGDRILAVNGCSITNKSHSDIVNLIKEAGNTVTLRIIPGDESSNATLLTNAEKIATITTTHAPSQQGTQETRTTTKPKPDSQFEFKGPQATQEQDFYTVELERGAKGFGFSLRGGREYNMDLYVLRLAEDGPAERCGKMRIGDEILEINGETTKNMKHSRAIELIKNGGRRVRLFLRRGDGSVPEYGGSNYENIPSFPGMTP

With delta-catenin 20 µM DHPG, 10 min, the “other: PLA puncta per cell” value with Pdlim5 is recorded as “stronger; reference 20.46 ± 1.41”; with Magi1, “weaker; reference 21.15 ± 7.24”.
Consider “delta-catenin C-terminal PDZ-binding motif (from UniProt O35927) pS1242 + pS1245 peptide”, for which the “binding against the reference” value is “stronger” with Pdlim5 PDZ domain (reference: pS1242-only peptide, sites S1245) and “stronger” in the assay with Pdlim5 PDZ domain (reference: pS1245-only peptide, sites S1242).
For “delta-catenin C-terminal PDZ-binding motif (from UniProt O35927) phosphorylated peptide (doubly phosphorylated probe assumed)”, in the assay with Erbin PDZ domain, the “binding against the reference” value is listed as “same”.
In assay [1], “endogenous Magi1 of rat hippocampal neurons (from UniProt Q4L1J4 1-1255) (natural protein)” came in with a PLA puncta per cell (20 µM DHPG, 10 min) of 8.95 puncta/cell; a PLA puncta per cell (no treatment) of 21.1 puncta/cell; a PLA puncta per neuron (puncta per neuron) of 16.

B1: endogenous Pdlim5 of rat hippocampal neurons (natural protein)
chain: MSNYNVSLVGPAPWGFRLQGGKDFNMPLTISSLKDGGKASQAHVRIGDVVLSIDGISAQGMTHLEAQNKIKACTGSLNMTLQRASAAAKSEPVAVQKGEPKEVVKPVPITSPAVSKVTSTTNMAYNKVPRPFGSVSSPKVTSIPSPSSAFTPAHAATSSHASPPPVAAVTPPPLSASGLHASANPSAAQCSSPPNTGKPAVHVPRQPTVTSVCSESAQELAEGQRRGSQGDIKQQNGPPRKHIVERNTEFYHIPTHSDASKKRLIEDTEDWRPRTGTTQSRSFRILAQITGTEHLKESENDNAKKANSTPEPSQQSASPLSAAESLESPGSNRPVVAGLRSAAAFKPVGSTSVKSPSWQRPNQAAPSTGRISNSASSSGTGAPMKPAVGPPQPSDQDTLVQRAEHIPAGKRTPMCAHCNQAIRGPFLVALGKSWHPEEFNCAHCKNTMAYIGFVEEKGALYCELCYEKFFAPECGRCQRKILGEVINALKQTWHVSCFVCVACGKPIRNNVFHLEDGEPYCETDYYALFGTICRGCEFPIEAGDMFLEALGSTWHDTCFVCSVCCESLEGQTFFSKKDKPLCKKHAHSVNF
In assay [1], B1 yielded a PLA puncta per cell (20 µM DHPG, 10 min) of 54.2 puncta/cell; a PLA puncta per cell (no treatment) of 20.5 puncta/cell; a PLA puncta per neuron (puncta per neuron) of 37.7.

B2: delta-catenin PDZ-binding motif peptide, De-Phospho (Biotin-TSHYPASPDSWV) (peptide)
peptide: Biotin-TSHYPASPDSWV
On to B2, for which, in assay [2], the binding result is “binds”.
